Experimental data published in publication PMC4530019.

Biological target: cardiac ryanodine receptor (RyR2) (rat (endogenous in ventricular myocytes)) (UniProt B0LPN4)
Sequence of UniProt B0LPN4 (B0LPN4 whole entry): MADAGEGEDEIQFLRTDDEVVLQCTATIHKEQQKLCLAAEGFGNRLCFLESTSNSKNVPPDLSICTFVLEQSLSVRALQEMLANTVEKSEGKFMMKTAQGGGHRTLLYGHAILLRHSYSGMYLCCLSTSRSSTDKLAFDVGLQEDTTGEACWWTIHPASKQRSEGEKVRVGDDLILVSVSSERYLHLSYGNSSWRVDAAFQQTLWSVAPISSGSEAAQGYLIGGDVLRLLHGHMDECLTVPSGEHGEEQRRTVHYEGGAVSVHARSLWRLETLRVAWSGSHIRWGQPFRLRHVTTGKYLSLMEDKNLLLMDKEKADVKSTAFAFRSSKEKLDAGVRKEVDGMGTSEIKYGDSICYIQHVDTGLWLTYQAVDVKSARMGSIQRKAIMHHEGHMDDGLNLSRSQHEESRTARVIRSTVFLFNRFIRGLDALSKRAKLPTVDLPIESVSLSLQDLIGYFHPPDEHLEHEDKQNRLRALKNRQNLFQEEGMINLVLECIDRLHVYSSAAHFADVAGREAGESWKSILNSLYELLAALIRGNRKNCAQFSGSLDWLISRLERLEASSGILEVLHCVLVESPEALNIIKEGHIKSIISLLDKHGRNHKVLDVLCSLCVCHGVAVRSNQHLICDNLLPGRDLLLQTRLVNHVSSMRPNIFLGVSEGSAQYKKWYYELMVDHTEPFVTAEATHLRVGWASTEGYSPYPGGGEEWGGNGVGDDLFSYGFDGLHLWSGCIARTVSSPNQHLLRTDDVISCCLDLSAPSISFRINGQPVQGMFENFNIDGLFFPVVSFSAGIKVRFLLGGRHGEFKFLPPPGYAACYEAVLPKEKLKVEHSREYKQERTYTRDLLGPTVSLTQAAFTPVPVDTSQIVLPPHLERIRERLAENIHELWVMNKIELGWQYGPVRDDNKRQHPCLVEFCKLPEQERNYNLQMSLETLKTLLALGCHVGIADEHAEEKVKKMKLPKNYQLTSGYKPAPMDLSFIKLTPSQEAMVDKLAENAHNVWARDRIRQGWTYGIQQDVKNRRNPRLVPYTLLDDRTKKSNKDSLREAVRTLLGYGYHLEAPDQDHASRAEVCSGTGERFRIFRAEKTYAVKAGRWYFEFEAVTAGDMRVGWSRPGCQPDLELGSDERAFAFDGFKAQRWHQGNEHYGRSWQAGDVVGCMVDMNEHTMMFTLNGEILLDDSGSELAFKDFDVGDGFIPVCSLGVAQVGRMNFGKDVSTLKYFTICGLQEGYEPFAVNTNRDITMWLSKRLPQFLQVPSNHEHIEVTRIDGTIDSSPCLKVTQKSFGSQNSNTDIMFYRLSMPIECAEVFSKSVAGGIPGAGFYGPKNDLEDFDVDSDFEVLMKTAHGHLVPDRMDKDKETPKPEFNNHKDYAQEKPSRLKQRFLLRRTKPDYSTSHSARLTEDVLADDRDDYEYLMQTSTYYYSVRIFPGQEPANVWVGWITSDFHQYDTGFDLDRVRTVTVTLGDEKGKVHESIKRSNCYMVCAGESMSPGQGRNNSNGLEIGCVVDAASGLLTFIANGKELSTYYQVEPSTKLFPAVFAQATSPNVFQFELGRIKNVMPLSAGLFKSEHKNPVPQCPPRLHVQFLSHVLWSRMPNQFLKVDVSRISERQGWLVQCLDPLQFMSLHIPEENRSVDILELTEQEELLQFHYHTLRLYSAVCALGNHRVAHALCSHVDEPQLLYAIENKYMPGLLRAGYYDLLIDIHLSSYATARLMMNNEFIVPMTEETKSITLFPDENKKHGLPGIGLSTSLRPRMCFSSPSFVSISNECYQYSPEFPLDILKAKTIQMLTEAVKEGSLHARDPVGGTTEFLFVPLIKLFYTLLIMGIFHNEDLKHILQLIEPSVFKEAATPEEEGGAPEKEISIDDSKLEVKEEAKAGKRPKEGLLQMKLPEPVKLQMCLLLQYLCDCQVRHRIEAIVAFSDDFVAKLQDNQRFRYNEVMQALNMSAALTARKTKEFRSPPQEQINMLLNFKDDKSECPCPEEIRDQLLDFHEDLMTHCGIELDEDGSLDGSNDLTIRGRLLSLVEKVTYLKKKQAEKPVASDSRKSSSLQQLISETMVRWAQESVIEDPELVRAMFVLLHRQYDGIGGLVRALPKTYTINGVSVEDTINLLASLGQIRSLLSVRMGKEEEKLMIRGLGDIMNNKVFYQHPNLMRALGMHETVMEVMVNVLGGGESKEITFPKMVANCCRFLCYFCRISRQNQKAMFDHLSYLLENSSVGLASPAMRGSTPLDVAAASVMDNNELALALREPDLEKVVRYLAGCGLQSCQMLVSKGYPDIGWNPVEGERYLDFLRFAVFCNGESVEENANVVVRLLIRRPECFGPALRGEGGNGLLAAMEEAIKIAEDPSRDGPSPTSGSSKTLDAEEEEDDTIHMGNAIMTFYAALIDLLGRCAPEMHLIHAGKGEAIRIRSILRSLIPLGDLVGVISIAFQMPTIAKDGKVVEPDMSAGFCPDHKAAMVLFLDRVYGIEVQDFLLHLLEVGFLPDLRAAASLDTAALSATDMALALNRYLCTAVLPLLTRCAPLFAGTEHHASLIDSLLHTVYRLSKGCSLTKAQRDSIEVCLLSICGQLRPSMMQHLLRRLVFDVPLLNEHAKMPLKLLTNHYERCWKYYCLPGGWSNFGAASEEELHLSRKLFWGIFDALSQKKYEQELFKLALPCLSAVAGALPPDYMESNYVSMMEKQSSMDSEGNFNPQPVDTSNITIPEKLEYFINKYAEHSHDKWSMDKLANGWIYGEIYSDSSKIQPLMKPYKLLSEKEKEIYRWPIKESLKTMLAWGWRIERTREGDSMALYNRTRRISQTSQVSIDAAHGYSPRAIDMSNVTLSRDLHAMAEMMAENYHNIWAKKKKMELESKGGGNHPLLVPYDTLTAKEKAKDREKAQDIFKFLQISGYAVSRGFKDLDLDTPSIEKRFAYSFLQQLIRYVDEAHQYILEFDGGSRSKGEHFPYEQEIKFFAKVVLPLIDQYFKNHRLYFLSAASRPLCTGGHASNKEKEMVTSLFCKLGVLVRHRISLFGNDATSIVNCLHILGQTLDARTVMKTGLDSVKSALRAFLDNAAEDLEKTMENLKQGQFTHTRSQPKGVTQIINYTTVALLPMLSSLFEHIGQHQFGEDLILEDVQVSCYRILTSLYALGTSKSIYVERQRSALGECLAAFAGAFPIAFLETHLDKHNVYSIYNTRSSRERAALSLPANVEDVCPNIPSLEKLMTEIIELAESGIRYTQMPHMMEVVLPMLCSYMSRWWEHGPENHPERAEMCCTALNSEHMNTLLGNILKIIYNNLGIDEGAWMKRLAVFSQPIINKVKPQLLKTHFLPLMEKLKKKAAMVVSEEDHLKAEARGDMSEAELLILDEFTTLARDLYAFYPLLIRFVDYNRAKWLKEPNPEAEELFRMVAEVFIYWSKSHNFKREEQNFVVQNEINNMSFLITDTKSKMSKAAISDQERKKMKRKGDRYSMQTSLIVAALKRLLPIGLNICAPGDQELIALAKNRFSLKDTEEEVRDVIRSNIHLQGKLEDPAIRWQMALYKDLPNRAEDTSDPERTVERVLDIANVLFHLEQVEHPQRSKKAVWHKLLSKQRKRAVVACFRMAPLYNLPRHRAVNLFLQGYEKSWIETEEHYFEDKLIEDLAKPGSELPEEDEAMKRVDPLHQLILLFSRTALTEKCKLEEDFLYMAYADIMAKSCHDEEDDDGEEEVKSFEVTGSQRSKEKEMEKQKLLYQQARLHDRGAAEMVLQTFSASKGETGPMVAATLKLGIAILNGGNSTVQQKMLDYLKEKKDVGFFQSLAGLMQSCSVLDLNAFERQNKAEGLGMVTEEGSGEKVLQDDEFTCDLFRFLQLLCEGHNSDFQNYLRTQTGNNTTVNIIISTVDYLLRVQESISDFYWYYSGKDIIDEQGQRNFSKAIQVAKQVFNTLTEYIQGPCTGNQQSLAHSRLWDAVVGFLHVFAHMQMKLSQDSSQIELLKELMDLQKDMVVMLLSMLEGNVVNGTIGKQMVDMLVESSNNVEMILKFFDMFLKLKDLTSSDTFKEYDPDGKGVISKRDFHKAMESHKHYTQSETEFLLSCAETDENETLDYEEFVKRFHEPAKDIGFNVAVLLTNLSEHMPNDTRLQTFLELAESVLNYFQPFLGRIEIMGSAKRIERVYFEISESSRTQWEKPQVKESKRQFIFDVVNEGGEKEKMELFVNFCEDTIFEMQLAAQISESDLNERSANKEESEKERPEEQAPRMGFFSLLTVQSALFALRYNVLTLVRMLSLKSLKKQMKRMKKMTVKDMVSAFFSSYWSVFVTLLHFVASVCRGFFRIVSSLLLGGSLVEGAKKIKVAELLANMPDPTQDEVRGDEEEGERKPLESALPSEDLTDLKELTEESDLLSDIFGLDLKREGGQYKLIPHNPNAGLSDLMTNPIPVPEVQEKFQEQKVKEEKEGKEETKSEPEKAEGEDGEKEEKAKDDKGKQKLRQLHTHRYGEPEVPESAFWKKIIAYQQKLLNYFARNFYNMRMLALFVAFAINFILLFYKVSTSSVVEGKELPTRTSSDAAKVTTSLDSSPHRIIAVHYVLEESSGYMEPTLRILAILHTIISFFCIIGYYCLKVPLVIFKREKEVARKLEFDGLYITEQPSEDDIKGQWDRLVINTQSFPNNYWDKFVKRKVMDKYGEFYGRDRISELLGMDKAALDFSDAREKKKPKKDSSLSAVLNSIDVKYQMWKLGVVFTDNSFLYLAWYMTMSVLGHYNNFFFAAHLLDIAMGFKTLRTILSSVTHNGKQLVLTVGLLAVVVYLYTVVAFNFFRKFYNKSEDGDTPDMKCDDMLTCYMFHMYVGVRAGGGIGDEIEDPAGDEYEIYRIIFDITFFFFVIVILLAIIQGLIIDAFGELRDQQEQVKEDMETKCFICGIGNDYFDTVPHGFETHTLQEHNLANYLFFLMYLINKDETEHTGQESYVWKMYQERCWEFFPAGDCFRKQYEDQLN

F-CaM pre-incubated in H2O2 (F-CaM^Ox) (from UniProt P0DP23 1-149) (natural protein)
percent reduction of specific Z-line binding against F-CaM that was not oxidized: 20%
